From patent publication US8110551B2 (priority 2008, dated 2012)
Read-outs that look alike come from different tables or passages of the source.

What was measured:
[1] = Substrate specificity with phosphoinositides in liposomes; format: biochemical; details: 0.5 μM CdtB, 0.1 μM PTEN; 30 min; liposomes with phosphatidylserine carrier; FIG. 3
Protocol: Phosphatase activity was assessed by monitoring the dephosphorylation of PI-3,4,5-P3 as described by Maehama et al [Maehama, T., G. Taylor, J. Slama, and J. Dixon. 2000. A sensitive assay for phosphoinositide phosphatases. Analytical Biochemistry 279:248-2501. Briefly, the reaction mixture (20 μl) consisted of 100 mM Tris-HCl (pH 8.0), 10 mM dithiothreitol, 0.5 mM diC16-phosphatidylserine (Avanti), 25 μM PI-3,4,5-P3 (diC16; Echelon) and the indicated amount of CdtB, CdtABC or PTEN (kindly provided by Gregory Taylor). Appropriate amounts of lipid solutions were deposited in 1.5 ml tubes, organic solvent removed, the buffer added and a lipid suspension formed by sonication. For experiments to determine substrate specificity, PI-3,4,5-P3 was replaced by the indicated phosphatidylinositol phosphate (Echelon). Phosphatase assays were carried out at 37° C. for 30 min; the reactions were terminated by the addition of 15 μl of 100 mM N-ethylmaleimide. Inorganic phosphate levels were then measured using a malachite green assay. […] Absorbance at 650 nm was measured and phosphate release quantified by comparison to inorganic phosphate standards.
CdtB substrate specificity was assessed using several different phosphoinositides (PI). […] In order to determine whether CdtB is a 3- or 5-phosphatase, product formation was assessed using thin layer chromatography. […]

[2] = TLC analysis of product formation after PI-3,4,5-P3 hydrolysis; format: biochemical; details: 0.5 μM CdtB or 0.1 μM PTEN, FIG. 3 inset
Excerpt: Analysis of CdtB-Mediated Product Formation
Inositol lipids were separated by thin layer chromatography. Silica gel G plates were dipped in boric acid (5% in methanol) and then dried. They were then spotted with the lipid samples dissolved in chloroform/methanol/water (1/2/0.1) together with solutions containing the standard inositol lipids phosphatidyl 4,5 bisphosphate, phosphatidyl 3,4 bisphosphate, phosphatidyl 3,5bis phosphate, phosphatidyl 3,4,5 trisphosphate, and phosphatidyl inositol. The plates were eluted with solutions containing propyl acetate/isopropanol/ethanol/ammonia/water (15/45/16/9/35), dried, and sprayed with solution containing CuSO4/H3PO4 (8%/10%), and air dried again. Plates were then heated to 70° C. then to 155° C. to visualize the lipids.

[3] = format: biochemical
CdtB = assay: Effect of phosphatase inhibitors on CdtB-mediated hydrolysis of PI-3,4,5-P3; format: biochemical, A. actinomycetemcomitans; details: for reduction of CdtB phosphatase activity: 0.5 μM CdtB, 30 min
Protocol: CdtB (0.5 μM; triangles) and PTEN (0.1 μM; circles) were incubated with liposomes containing PI-3,4,5-P3 in the presence of varying concentrations of tungstate or orthovanadate for 30 min. Phosphate release was measured using the malachite green binding assay. Results are plotted as phosphate release (nmol/30 min; mean±S.D.) versus inhibitor concentration (mM);
Phosphatase activity was assessed by monitoring the dephosphorylation of PI-3,4,5-P3 as described by Maehama et al [Maehama, T., G. Taylor, J. Slama, and J. Dixon. 2000. A sensitive assay for phosphoinositide phosphatases. Analytical Biochemistry 279:248-2501. Briefly, the reaction mixture (20 μl) consisted of 100 mM Tris-HCl (pH 8.0), 10 mM dithiothreitol, 0.5 mM diC16-phosphatidylserine (Avanti), 25 μM PI-3,4,5-P3 (diC16; Echelon) and the indicated amount of CdtB, CdtABC or PTEN (kindly provided by Gregory Taylor). Appropriate amounts of lipid solutions were deposited in 1.5 ml tubes, organic solvent removed, the buffer added and a lipid suspension formed by sonication. For experiments to determine substrate specificity, PI-3,4,5-P3 was replaced by the indicated phosphatidylinositol phosphate (Echelon). Phosphatase assays were carried out at 37° C. for 30 min; the reactions were terminated by the addition of 15 μl of 100 mM N-ethylmaleimide. Inorganic phosphate levels were then measured using a malachite green assay. Malachite green solution (Biomol Green; Biomol) was added to […] of the enzyme reaction mixture and color was developed for 20 min at RT. Absorbance at 650 nm was measured and phosphate release quantified by comparison to inorganic phosphate standards.

Jurkat cells [4] = format: cell-based, human; details: 16 hr
[5] = Protein phosphatase activity with synthetic substrate; format: biochemical; details: synthetic substrate pNPP
supercoiled pUC19 DNA = format: biochemical
Jurkat cells [6] = format: cell-based, human
[7] = Dephosphorylation of inositol phosphates; format: biochemical
[8] = 30 min, read-out: ED0.5 [concentration required to catalyze 0.5 nmol phosphate release]

PTEN: Tumor suppressor phosphatase (phosphatase and tensin homolog deleted on chromosome ten), used for comparison [reference compound]
substrate specificity (phosphate release with phosphatidylinositol phosphates) [1]: substrate specificity for PI-(3,4,5)-P3 identical to CdtB
product formed from PI-3,4,5-P3 [2]: PI-(4,5)-P2
Km [3]: 159 µM
EC50 [3, 8]: 50 nM

[O]=[W](=[O])([O-])[O-] [tungstate]
reduction of CdtB phosphatase activity (CdtB; 1 mM inhibitor): 15%
reduction of CdtB phosphatase activity (CdtB; 10 mM inhibitor): 70%

[O]=[V]([O-])([O-])[O-] [orthovanadate]
reduction of CdtB phosphatase activity (CdtB; 1 mM inhibitor): 10%
reduction of CdtB phosphatase activity (CdtB; 10 mM inhibitor): 85%

COC[C@H]1OC(=O)c2coc3c2[C@@]1(C)C1=C(C3=O)[C@@H]2CCC(=O)[C@@]2(C)C[C@H]1OC(C)=O [wortmannin]
Cdt-induced accumulation of G2 cells after pre-treatment (Jurkat cells [4]): 35%

O=c1cc(N2CCOCC2)oc2c(-c3ccccc3)cccc12 [LY290004]
Cdt-induced accumulation of G2 cells after pre-treatment (Jurkat cells [4]): 22.0%

[O]=[Mo](=[O])([O-])[O-] [molybdate]
inhibition of CdtB (in words) (CdtB): failed to inhibit

B1: CdtB: Active B subunit of cytolethal distending toxin, SEQ ID NO: 3, expressed from pGEMCdtB (protein)
chain: NLSDFKVATWNLQGSSAVNESKWNINVRQLLSGEQGADILMVQEAGSLPSSAVRTSRVIQHGGTPIEEYTWNLGTRSRPNMVYIYYSRLDVGANRVNLAIVSRRQADEAFIVHSDSSVLQSRPAVGIRIGTDVFFTVHALATGGSDAVSLIRNIFTTFTSSPSSPERRGYSWMVVGDFNRAPVNLEAALRQEPAVSENTIIIAPTEPTHRSGNILDYAILHDAHLPRREQARERIGASLMLNQLRSQITSDHFPVSFVRDR
modifications: Actinobacillus actinomycetemcomitans
protein phosphatase activity [5]: did not exhibit detectable protein phosphatase activity
substrate specificity (phosphate release with phosphatidylinositol phosphates) [1]: only occurred in the presence of PI-3,4,5-P3
DNase Activity (% CdtB^wt) (supercoiled pUC19 DNA): 100 % CdtB^wt
DNase activity (in words) (supercoiled pUC19 DNA; 2 hrs at 37° C.): detectable nuclease activity although it was less than five orders of magnitude of that observed with bovine DNase I
product formed from PI-3,4,5-P3 [2]: PI-(3,4)-P2
toxicity (G2 cell cycle arrest), dose response (Jurkat cells [6]): comparable activity
percentage of G2 cells (Jurkat cells [6]; 18 hrs): 54.8%
dephosphorylation of inositol triphosphate or inositol tetrakisphosphate [7]: unable to dephosphorylate
Km [3]: 124 µM
PIP3 phosphatase activity (% CdtB^wt) [3]: 100 % CdtB^wt
EC50 [3, 8]: 500 nM
EC50 ([3]; read-out: ED0.5): 300 nM
